Assay results as given in patent US20080313769A9, “EPSP synthase domains conferring glyphosate resistance” (Athenix Corporation, priority 2006, published 2008).

Key:
E. coli cells = assay: Growth of E. coli expressing EPSP synthase genes on M63 agar medium containing glyphosate; format: cell-based; details: for Glyphosate resistance conferred by expression in E. coli (summary in words): M63 agar, various concentrations of glyphosate, vs pAX701 glyphosate-sensitive control
Text: The coding sequence of the Clostridium acetobutylicum EPSP synthase gene (SEQ ID NO:5), identified in Genbank accession number NC—003030, was PCR amplified using the following primers: […] (upper) (SEQ ID NO:42) and […] (lower) (SEQ ID NO:43). The upper primer changed the start codon to ATG from TTG, as it naturally occurs. The resultant 1.3 kb product was digested with BamH I and Asc I, and ligated into the same sites of a modified version of pUC 18 and transformed into the E. coli strain DH5a. A positive clone containing the EPSP synthase insert was identified by restriction digest and named pAX714. A pAX714 colony was struck onto minimal M63 media containing IPTG, carbenicillin and 0, 20, 50 or 100 mM glyphosate, and the plates were incubated at 37° C. […] The encoded EPSP synthase (SEQ ID NO:6) was named grg10.
(§1) Plasmids pAX714 and pAX716, containing grg10 and grg20, respectively, were transformed into E. coli cells and streaked onto M63 agar medium containing IPTG, carbenicillin, and various concentrations of glyphosate. Colonies of pAX701 (containing the wild-type E. coli aroA gene) were used as glyphosate-sensitive controls.
as §1, with “pAX723” for “pAX714”, “pAX72^4,” for “pAX716,”, “grg21” for “grg10”, “grg22,” for “grg20,”

bacteria and plants = details: statement referring to earlier patent applications; cited from earlier work

Row | Molecule | Glyphosate resistance conferred by expression in E. coli (summary in words) (E. coli cells) | Glyphosate resistance or tolerance conferred on organisms (in words) (bacteria and plants) | also measured
1 | grg10: EPSP synthase of Clostridium acetobutylicum (SEQ ID NO:6), expressed from plasmid pAX714 (protein, listed as Clostridium acetobutylicum) MNCVKINPCCLKGDIKIPPSKSLGHRAIICAALSEEESTIENISYSKDIKATCIGMSKLGALIIEDAKDNSTLKIKKQKLVSKEKVYIDCSESGSTVRFLIPISLIEERNVVFDGQGKLSYRPLDSYFNIFDEKEIAYSHPEGKVLPLQIKGRLKAGMFNLPGNISSQFISGLMFSLPFLEGDSIINITTNLESVGYVDMTIDMLKKFGIEIENKAYKSFFIKGNQKCKGTKYKVEGDFSQAAFWLSAGILNGNINCKDLNISSLQGDKVILDILKKMGGAIDEKSFSSKKSHTHGIVIDASQCPDLVPILSVVAALSEGTTKIVNAARLRIKESDRLKAMATELNKLGAEVVELEDGLLIEGKEKLKGGEVESWNDHRIAMALGIAALRCEESVTINGSECVSKSYPQFWSDLKQLGGDVHEWSLGE | confers resistance to high levels of glyphosate |  | Glyphosate concentration to which the encoded EPSP synthase is resistant (E. coli cells; E. coli DH5a on minimal M63 media, 37° C.): at least 100 mM; Growth of pAX714-containing cells on glyphosate (E. coli cells; minimal M63 media with IPTG, carbenicillin and 0, 20, 50 or 100 mM glyphosate, 37° C.): grew very well on all concentrations of glyphosate tested
2 | GRG23: EPSP synthase (SEQ ID NO:14) isolated from a bacterial strain exhibiting strong glyphosate resistance (protein, listed as Arthrobacter globiformis, VARIANT (0)...(0) Strain ATX21308) MALERGQHGRSRRLFGASLERITMETDRLVIPGSKSITNRALLLAAAAKGTSVLVRPLVSADTSAFKTAIQALGANVSADGDNWVVEGLGQAPHLDADIWCEDAGTVARFLPPFVAAGQGKFTVDGSEQLRRRPLRPLVDGIRHLGARVSSEQLPLTIEASGLAGGEYEIEAHQSSQFASGLIMAAPYARQGLRVRIPNPVSQPYLTMTLRMMRDFGLETSTDGATVSVPPGRYTARRYEIEPDASTASYFAAASAVSGRSFEFQGLGTDSIQGDTSFFNVLGRLGAEVHWAPNSVTISGPERLNGDIEVDMGEISDTFMTLAAIAPLADGPITITNIGHARLKESDRISAMETNLRTLGVQTDVGHDWMRIYPSTPHGGRVNCHRDHRIAMAFSILGLRVDGITLDDPQCVGKTFPGFFDYLGRLFPEKALTLPG |  | confers glyphosate tolerance | 
3 | grg21: EPSP synthase of Fusobacterium nucleatum (SEQ ID NO:8), synthetic gene in plasmid pAX723 (protein, listed as Fusobacterium nucleatum) MRNMNKKIIKADKLVGEVTPPPSKSVLHRYIIASSLAKGISKIENISYSDDIIATIEAMKKLGANIEKKDNYLLIDGSKTFDKEYLNNDSEIDCNESGSTLRFLFPLSIVKENKILFKGKGKLFKRPLSPYFENFDKYQIKCSSINENKILLDGELKSGVYEIDGNISSQFITGLLFSLPLLNGNSKIIIKGKLESSSYIDITLDCLNKFGINIINNSYKEFIIEGNQTYKSGNYQVEADYSQVAFFLVANSIGSNIKINGLNVNSLQGDKKIIDFISEIDNWTKNEKLILDGSETPDIIPILSLKACISKKEIEIVNIARLRIKESDRLSATVQELSKLGFDLIEKEDSILINSRKNFNEISNNSPISLSSHSDHRIAMTVAIASTCYEGEIILDNLDCVKKSYPNFWEVFLSLGGKIYEYLG | confers resistance to high levels of glyphosate |  | 
4 | GRG1: EPSP synthase (SEQ ID NO:2) that confers glyphosate resistance, from U.S. application 10/739,610 (protein, listed as Enterobacteriaceae sp.) VKVTIQPGDLTGIIQSPASKSSMQRACAAALVAKGISEIINPGHSNDDKAARDIVSRLGARLEDQPDGSLQITSEGVKPVAPFIDCGESGLSIRMFTPIVALSKEEVTIKGSGSLVTRPMDFFDEILPHLGVKVKSNQGKLPLVIQGPLKPADVTVDGSLSSQFLTGLLLAYAAADASDVAIKVTNLKSRPYIDLTLDVMKRFGLKTPENRNYEEFYFKAGNVYDETKMQRYTVEGDWSGGAFLLVAGAIAGPITVRGLDIASTQADKAIVQALMSANAGIAIDAKEIKLHPADLNAFEFDATDCPDLFPPLVALASYCKGETKIKGVSRLAHKESDRGLTLQDEFGKMGVEIHLEGDLMRVIGGKGVKGAEVSSRHDHRIAMACAVAALKAVGETTIEHAEAVNKSYPDFYSDLKQLGGVVSLNHQFNFS |  | confers glyphosate resistance upon both bacteria and plants | 
5 | grg22: EPSP synthase of Methanopyrus kandleri (SEQ ID NO:10), synthetic gene in plasmid pAX724 (protein, listed as Methanopyrus kanleri) MKRVELEGIPEVRGTVCPPPSKSGSHRALIAASLCDGSTELWNVLDAEDVRATLRLCRMLGAEVDVDGEERLEATVSGFGDSPRAPEDVVDCGNSGTTLRLGCGLAALVEGTTILTGDDSLRSRPVGDLLAALRSLGVDARGRVVRGEEYPPVVISGRPLRERVAVYGDVSSQFVSALLFLGAGLGALRVDVVGDLRSRPYVDMTVETLERFGVSVVREGSSFEVEGRPRSPGKLRVENDWSSAGYFVALGAIGGEMRIEGVDLDSSHPDRRIVEITREMGAEVRRIDGGIVVRSTGRLEGVEVDLSDSPDLVPTVAAMACFAEGVTRIENVGHLRYKEVDRLRALAAELPKFGVEVREGKDWLEIVGGEPVGARVDSRGDHRMAMALAVVGAFARGKTVVERADAVSISYPRFWEDLASVGVPVHSV | confers resistance to high levels of glyphosate |  | 
6 | grg20: EPSP synthase of Sulfolobus solfataricus (SEQ ID NO:12), expressed from plasmid pAX716 (protein, listed as Solfolobus solfataricus) MIVKIYPSKISGIIKAPQSKSLAIRLIFLSLFTRVYLHNLVLSEDVIDAIKSVRALGVKVKNNSEFIPPEKLEIKERFIKLKGSATTLRMLIPILAAIGGEVTIDADESLRRRPLNRIVQALSNYGISFSSYSLPLTITGKLSSNEIKISGDESSQYISGLIYALHILNGGSIEILPPISSKSYILLTIDLFKRFGSDVKFYGSKIHVNPNNLVEFQGEVAGDYGLASFYALSALVSGGGITITNLWEPKEYFGDHSIVKIFSEMGASSEYKDGRWFVKAKDKYSPIKIDIDDAPDLAMTIAGLSAIAEGTSEIIGIERLRIKESDRIESIRKILGLYGVGSEVKYNSILIFGINKGMLNSPVTDCLNDHRVAMMSSALALVNGGVITSAECVGKSNPNYWQDLLSLNAKISIE | confers resistance to high levels of glyphosate |  | 
